The record followed here is the nanobody polyreactivity screen of Harvey et al. (2022).

The data set is described as follows: yeast display, Sf9 membrane polyspecificity reagent, FACS + sequencing; frameworks hold sequencing errors. Summed up:
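Genes from sorted yeast were amplified by colony PCR, read by MiSeq 2 × 250 sequencing and filtered on CDR length. These cells carried a synthetic nanobody library in Saccharomyces cerevisiae BJ5465 and were sorted by FACS into low and high (top ~1%) gates on anti-HA and streptavidin fluorescence. Polyreactivity is labelled according to the gate of origin.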
As for “QVQLVESGGGLVQAGGSLRLSCAASGITFPGNAMGWYRQAPGKERELVAGISDGDSTNYADSVKARFTISRDNAKNTVYLQMNSLKPEDTAVYYCARDTELYVRWLDYWGQGTQVTVSS”, the “polyreactivity (PSR sort gate)” value is “low polyreactivity”.

“QVQLVESGGGLVQAGGSLRLSCAASGITFPGNAMGWYRQAPGKERELVAVISSGTSTNYADSVKGRFTISRDNAKYTVYLQMNSLKPEDTAVYYCATSLYYYPYYYWGQGTQVTVSS”: the “polyreactivity (PSR sort gate)” value was “low polyreactivity”.

As for “QVQLVESGGGLVQAGGSLRLSCAASGITFPGYAMGWYRQAPGKEWELVAAISTSGGSTYYADSVKGRFTISRDNAKNTVYLQMNSLKPEATAVYYCNARLVSYSYEEMDYWGQGTQVTVSS”, the “polyreactivity (PSR sort gate)” value is on record as “low polyreactivity”.

For the sequence “QVQLVESGGGLVQAGGSLRLSCAASGITFPGYARGWYRQAPGKASELVAAIDWSGDGTYYADSVKGRFTISRDNAKNTVYLQMNSLKPEDTAVYYCAKDNYPNHCTVRAVIYDYWGQGTQVTVSS”, the “polyreactivity (PSR sort gate)” value is on record as “low polyreactivity”.

Consider “QVQLVESGGGLVQAGGSLRLSCAASGITFPRYAMGWYRQAPGKERELVARITSGGRTNYADSVKGRFTISRDNAKNTVYLQMYSLKPEDTAVYYCNAVGWVRSQVRLGYWGQGTQVTVSS”, for which the “polyreactivity (PSR sort gate)” value is “high polyreactivity”.

For the sequence “QVQLVESGGGLVQAGGSLRLSCAASGITFPRYVMGWYRQAPGKEREFVAAINYSGGRTYYADSVKGRFTISRDNAKNTVYLQMKSLKPEDTAVYYCAVDLHVWPFWFDYWGQGTQVTVSS”, the “polyreactivity (PSR sort gate)” value was “high polyreactivity”.

“QVQLVESGGGLVQAGGSLRLSCAASGITFPSYTMGWYRQAPGKERELVATIRNGGSTYYADSVKGRFTISRDNAKNTVYLHMNSLKPEDTAVYYCAAVPLWDYKVFYYLLYDYWGQGTQVTVSS”: the “polyreactivity (PSR sort gate)” value was “low polyreactivity”.

“QVQLVESGGGLVQAGGSLRLSCAASGITFPSYTMGWYRQAPGKERELVATIRNGGSTYYADSVKGRFTISRDNAKNTVYLQMNSLKPEDPAVYYCAAVPLWDYKFFYYLLYDYWGQGTQVTVSS”: the “polyreactivity (PSR sort gate)” value was “low polyreactivity”.

For “QVQLVESGGGLVQAGGSLRLSCAASGITFPSYVMGWYRQAPGKEREFVAAITGSAGSTYYADSVKGRFTISRDNAKNTVYLQMNSLKPADTAVYYCAARVRYVNPKYYYWGQGTQVTVSS”, the “polyreactivity (PSR sort gate)” value was “high polyreactivity”.

For “QVQLVESGGGLVQAGGSLRLSCAASGITFQHYSMGWYRQAPGKERELVAAISSSGGRTYYADSVKGRFTISRDNAKNTVYLQMNSLKPEDTAVYYCNGVDRYNRFDSWGQGTQVTVSS”, the “polyreactivity (PSR sort gate)” value is “high polyreactivity”.

“QVQLVESGGGLVQAGGSLRLSCAASGITFQKNAMGWYSQAPGKERELVAGITWRGSTYYADSVKGRFTISRDNAKNTVYLQRNSLKPEDTAVYYCAADPFSWYRSVRGEYWGQGTQVTVSS”: the “polyreactivity (PSR sort gate)” value is given as “low polyreactivity”.

Take “QVQLVESGGGLVQAGGSLRLSCAASGITFQRYAMGWYRQAPGKERELVAAISTNGGTTYYADSVKGRFTISRDTAKNTVYLQMNSLKPEDTAVYYCNAESGYVYYIRYNYWGQGTQVTVSS”: the “polyreactivity (PSR sort gate)” value was “high polyreactivity”.

With “QVQLVESGGGLVQAGGSLRLSCAASGITFQSNDMGWYRQAPGKERELVAAISWSDDTTYYADSVKGRFTISRDNAKNTVYLQMNSLKPEDTAVYYCAAVYDSKSYYYWGQGTQVTVSS”, the “polyreactivity (PSR sort gate)” value was “high polyreactivity”.

As for “QVQLVESGGGLVQAGGSLRLSCAASGITFQYYAMGWYRQAPGKERELVAAITSSGVSTYYADSVKGRFTISRDNAKNTVYLQMNSLKPEDTAVYYCNTVVRGWSSSAYDYWGQGTQVTVSS”, the “polyreactivity (PSR sort gate)” value was “low polyreactivity”.

On to “QVQLVESGGGLVQAGGSLRLSCAASGITFQYYTMGWYRQAPGKERELVAAISWSTSSTYYADSVKGRFTISRDNAKNTVYLQMNSLKPEDTAVYYCAARYTTRRYYYWGQGTQVTVSS”, for which the “polyreactivity (PSR sort gate)” value is listed as “high polyreactivity”.

With “QVQLVESGGGLVQAGGSLRLSCAASGITFRDNGMGWYRQAPGKESELVAAITSGGSTYYADSVKGRFTISRDNAKNTVYLQMNSLKPEDTAVYYCAAKRIKRRGWRQLSWYDSWGQGTQVTVSS”, the “polyreactivity (PSR sort gate)” value is “high polyreactivity”.

“QVQLVESGGGLVQAGGSLRLSCAASGITFRFYAMGWYRQAPGKERELVAVISRGGGTTYYADSVKGRFTISRDNAKNTVYLHMNSLKPEDTAVYYCNAVIAWYRSDEYDYWGQGTQVTVSS”: the “polyreactivity (PSR sort gate)” value is reported as “high polyreactivity”.

Regarding “QVQLVESGGGLVQAGGSLRLSCAASGITFRGYAMGWYRQAPGKERELVATISYRGGNTYYADSVKGRFTISRDNAKNTVYLQMNSLKPEDTAVYYCARKYFRTSNLYGYWGQGTQVTVSS”, the “polyreactivity (PSR sort gate)” value is listed as “high polyreactivity”.

Regarding “QVQLVESGGGLVQAGGSLRLSCAASGITFRKYAMGWYRQAPGKERELVAGIRYSGSSTYYADSVKGRFTISRDNAKNTVYLQMNSLKPEDTAVYYCAVYGTTRYATTYDYWGQGTQVTVSS”, the “polyreactivity (PSR sort gate)” value is reported as “high polyreactivity”.

As to “QVQLVESGGGLVQAGGSLRLSCAASGITFRQYAMGWYRQAPGKERELVAVITSRGGTTYYADSVKGRFTISRDNAKNTVYLQMNSLKPEDTAVYYCAKVYGFPYYRAYFPERRNGYWGQGTQVTVSS”, the “polyreactivity (PSR sort gate)” value is on record as “high polyreactivity”.

Regarding “QVQLVESGGGLVQAGGSLRLSCAASGITFRRNAMGWSRQAHGQVRELVAAITRSGGSTYYADSVKGRFTISRDNAKNTVYLQMNSLKPEDTADYYCAADNTNDEDTGYYWGQGTQVTVSS”, the “polyreactivity (PSR sort gate)” value was “high polyreactivity”.

Regarding “QVQLVESGGGLVQAGGSLRLSCAASGITFRRNAMGWYRQAPGKERELVAAISLSGTRTYYADSVKGRFTISRDNAKNTVYLQMNSLKPEDTAVYYCAASYYNKFDYWGQGTQVTVSS”, the “polyreactivity (PSR sort gate)” value is “high polyreactivity”.

“QVQLVESGGGLVQAGGSLRLSCAASGITFRRNAMGWYRQAPGKERELVAAITSRGGSTYYADSVKGRFTISRDNAKNTVYLQMNSMKPEDTAVYYCNAGGVDRVDRDYWGQGTQVTVSS”: the “polyreactivity (PSR sort gate)” value is on record as “high polyreactivity”.

In the case of “QVQLVESGGGLVQAGGSLRLSCAASGITFRRYGMGWYRQAPGKERELVATITSSVGSRTYYADSVKGRFTISRDNAKNTVYLQMNSLKPEDTAVYYCAADHRVYDYEYWGQGTQVTVSS”, the “polyreactivity (PSR sort gate)” value was “low polyreactivity”.

On to “QVQLVESGGGLVQAGGSLRLSCAASGITFRSYAMGWYRQAPGKERELVATISWSGGITYYADSVKGRFTISRDNAKNTVYLQMNSLKPEDTAFYYCAKASQSWGRVDYYYWGLGTQVTVSS”, for which the “polyreactivity (PSR sort gate)” value was “low polyreactivity”.

For “QVQLVESGGGLVQAGGSLRLSCAASGITFRSYDMGWYRQAPGTERELVAAISSTGRTYYADSVKGRFTISRDNAKNTVYLQMNSLKPEDTAVYYCARARSHYAYYWWNAGTGLDYWGQGTQVTVSS”, the “polyreactivity (PSR sort gate)” value was “high polyreactivity”.

As for “QVQLVESGGGLVQAGGSLRLSCAASGITFRSYVMGWYRQAPGKEMEFVAVITKSGGSTYYADSVKGRFTISRDNAMNTVYLQMNSLKPEDTAVYYCGAEYARSSRYKISSEMYYWGQGTQVTVSS”, the “polyreactivity (PSR sort gate)” value is given as “high polyreactivity”.

On to “QVQLVESGGGLVQAGGSLRLSCAASGITFRTNAMGWYRQAPGKERELVAAITTNGGNTYYADSVKGRFTISRDNAKNTVYLQMNSLKPEDTAVYYCNTATYVDSFPDPGDHWGQGTQVTVSS”, for which the “polyreactivity (PSR sort gate)” value was “low polyreactivity”.

Take “QVQLVESGGGLVQAGGSLRLSCAASGITFRWYAMGWYRQAPGKERELVAAISTSGTRTYYADSVKGRFTISRDNAKNTVYLLMNSLKPEDTAVYYCAADYGRQLGRYGFGYWGQGTQVSVSS”: the “polyreactivity (PSR sort gate)” value is listed as “high polyreactivity”.

Take “QVQLVESGGGLVQAGGSLRLSCAASGITFRWYTMGWYRQAPGKERELVAAITSSGARTYYADSVKGRFTISRDNAKNTVYLQMNSLKPEDTAVYYCAATQTRFAAKDEYWGQGTQVTVSS”: the “polyreactivity (PSR sort gate)” value is reported as “high polyreactivity”.

Turning to “QVQLVESGGGLVQAGGSLRLSCAASGITFRYFAMGWYRQAPGKERELVAAITRSGSTTYADSVKGRFTISRDNAKNTVYLQMNSLKPEDTAVYYCAVDYYYLTGGVDYWGQGTQVTVSS”, the “polyreactivity (PSR sort gate)” value is listed as “low polyreactivity”.

For “QVQLVESGGGLVQAGGSLRLSCAASGITFRYYAMGWYRQAPGKERELVAAITRGGRTNYADSVKGRFTISRDNAKNTVYLQMNSLKPEDAAVYYCATGRDSNFGNSYYYWGQGTQVTVSS”, the “polyreactivity (PSR sort gate)” value is recorded as “high polyreactivity”.

Turning to “QVQLVESGGGLVQAGGSLRLSCAASGITFRYYAMGWYRQAPGKERELVAGISGRGGSTYYADSVKGRFTISRDNAKNTVYLQLNSLKPEDTAVYYCAKDRLWYRGYRWGYYYWGQGTQVTVSS”, the “polyreactivity (PSR sort gate)” value is recorded as “high polyreactivity”.

On to “QVQLVESGGGLVQAGGSLRLSCAASGITFRYYAMGWYRQAPGKERELVATITRGGSTYYADSVKGRFTISRDNAKNTVYLQMNSLKPEDTADYYCAAAGQRYTYWVDYWGQGTQVTVSS”, for which the “polyreactivity (PSR sort gate)” value is “high polyreactivity”.

As to “QVQLVESGGGLVQAGGSLRLSCAASGITFSFYAMGWYRQAPGKERELVATIDSGGSTNYADSVKGRFTISRDNAKNTVYLQMNSLKPEDTAVYYCAVVFHYSTIGGGYRPRMYYWGQGTQVTVSS”, the “polyreactivity (PSR sort gate)” value is on record as “low polyreactivity”.

On to “QVQLVESGGGLVQAGGSLRLSCAASGITFSGYDMGWYRQAPGKERELVADITISTGSTYYADSVKGRFTISRDNAKNTVYLQMNSLKPEDTAVYYCAADWQQDRTVVLPSWGHAYDSWGQGTQVTVSS”, for which the “polyreactivity (PSR sort gate)” value is given as “low polyreactivity”.

With “QVQLVESGGGLVQAGGSLRLSCAASGITFSHYAMGWYRQAPGKEREFVAAIRYSGGRTYYADSVKGRFTISRDNAKNTVYLQMNSLKPEDTAVYYCAAVVPDRYWGQGTQVTVSS”, the “polyreactivity (PSR sort gate)” value is “high polyreactivity”.

Take “QVQLVESGGGLVQAGGSLRLSCAASGITFSRNAMGWYRQAPGKERELVAVISTRGGRTYYADSVKGRFTISRDNAKNTVYLQMNSLKPEDTAVYYCAARSTYYRQQRGYDYWGQGTQVTVSS”: the “polyreactivity (PSR sort gate)” value is reported as “high polyreactivity”.

For “QVQLVESGGGLVQAGGSLRLSCAASGITFSRYAMGWYRQAPGKERELVASISTSGGSTYYADSVKGRFTISRDNAKNTVYLQMNSLKPEDTAVYYCAASVWSSRRFGYWGQGTQVSVSS”, the “polyreactivity (PSR sort gate)” value is “high polyreactivity”.

For the sequence “QVQLVESGGGLVQAGGSLRLSCAASGITFSRYGMGWYRQAPGKERELVAVISWRGGRTYYADSVKGRFTISRYNAKNTVYLHMNSLKPEDTAVYYCAADSRQSVYDYDYWGQGTQVTVSS”, the “polyreactivity (PSR sort gate)” value is on record as “high polyreactivity”.
